Where no end group is shown, it is not given here. The star is where a group is joined. FITC = O=C1OC2(c3ccc(O)cc3Oc3cc(O)ccc32)c2ccc(NC(=S)*)cc21; Ahx = NCCCCCC(=O)O
Key:
rhEGFR = biological target: T1, rhEGFR (Homo sapiens, UniProt P00533); test: Competition test between phage and synthetic peptide on solid phase rhEGFR; type: binding; details: for binding of the I-1010 phage to a rhEGFR (ratio of an input titer/output titer) on adding the peptide: peptide added at each concentration, up to 100 μM
T1 construct: purchased R&D Systems
Procedure: A rhEGFR that is a target protein was added to a 96-well microplate to be 1 μg/well, and stood still at 4° C. overnight to be thus formed into a solid phase. A protein solution was removed, 300 μl of a blocking buffer was added and the mixture was incubated at 37° C. for 1 hour to thus block the wells. After removal of the blocking buffer, the wells were washed three times with 200 μl of 0.5% TBST washing solution, and finally 100 μl of 0.5% TBST was added thereto. […] A reaction only of the I-1010 phage without adding both of the peptides was employed as a control. […] In the reaction, the mixture was gently shaken at room temperature for 1 hour. The reaction solution was removed and the wells were washed with 200 μl of 0.5% TBST ten times. 100 μl of 0.2 M glycine-HCl (pH 2.2) was then added to the wells and stirred by pipetting, thereafter gently shaking at room temperature for 10 minutes. The eluate was collected to a microtube from the wells and added with 15 μl of 1M Tris-HCl (pH 9.1) to be neutralized and a target binding phage solution was thus obtained. The binding ability of the collected phage was examined by a measurement of a titer.

A-431 cells = test: In vitro imaging with FITC labeled peptide, confocal microscope, A-431 cells; type: cell-based, human; details: 100 μM FITC labeled peptide, 37° C., 1 hour
Procedure: A-431 cells were inoculated in a glass bottom dish to be 20×10^4 cells/dish and MCF7 cells were inoculated in a glass bottom dish to be 75×10^4 cells/dish, and cultured at 37° C. in the condition of CO2 for 24 hours. After culturing each kind of the cells for a specified time, EGF was added to have a concentration of 100 ng/mL and the mixture was cultured for 6 days. Thereafter, the culture solution in the dish was removed and washed with 1000 μL of a growth medium at 37° C. ten times. An aminocaproic acid linker was connected to an N terminal of a peptide and the peptide in which FITC was labeled in the opposite side of the connected linker (Pep055-F, Pep032-F ([…] (peptide irrelevant to binding to EGFR): SEQ ID No. 54)) (purity 80.6%, HPLC grade, AnyGen, Korea) was prepared to be 100 μM in a growth medium, and 1 mL of the medium was added and incubated at 37° C. for 1 hour. A staining fluid was removed and washed with 1 mL of a growth medium at 37° C. three times and thereto was finally added 1 mL of the medium. For observation, fluorescent observation was carried out by irradiating an exciting light laser with a wavelength of 488 nm using a confocal microscope (Leica SP2).

[1] = I-1010 phage 1×10^10 PFU, FIG. 6

| Substance | binding of the I-1010 phage to a rhEGFR (ratio of an input titer/output titer) on adding the peptide (rhEGFR; [1]) | stainability of A-431 cells (A-431 cells) | also measured |
| --- | --- | --- | --- |
| GAASRTYLHELI (Random peptide) [Pep018, reference compound] | maintained | – | – |
| Pep055-F: Pep055 with an aminocaproic acid linker at the N terminal, labeled with FITC ({FITC-Ahx}-WHLSDLWQNAWH) | – | Staining of the cytoplasm of the A-431 cells was observed | – |
| Pep055: synthetic peptide obtained by artificially synthesizing the I-1010 phage displayed peptide (SEQ ID No. 2) (WHLSDLWQNAWH; I-1010) | inhibited concentration-dependently | – | peptide concentration from which the ratio of an input titer/output titer of the I-1010 phage dropped (rhEGFR; [1]): ≥ 1 µM |
| Pep056: synthetic peptide (SEQ ID No. 4) of the I-1012 phage displayed peptide (FHDWLPEVSPPD; I-1012) | – | – | binding of the I-1012 phage to EGFR on adding the peptide (rhEGFR; FIG. 7): inhibit |
| Pep057: synthetic peptide (SEQ ID No. 7) of the I-1015 phage displayed peptide (LHQSEWMYVDIH; I-1015) | – | – | binding of the I-1015 phage to EGFR on adding the peptide (rhEGFR; FIG. 8): inhibit |
| YLPLWRLSESHM ({FITC-Ahx}-YLPLWRLSESHM) [Pep032-F, reference compound] | – | scarcely stained | – |
